The subject of one assay is tri-SUMO2–GFP–HA2. The assay is described as follows: Proteasomal targeting of tri-SUMO2–GFP–HA2 by RNF4 in yeast. The note with it: yeast coexpressing RNF4; Western blot, normalized to CDC11. It is filed as cell-based, S. cerevisiae. The source says: (§1) For expression in Escherichia coli, linear poly-SUMO chains were generated as described previously with slight modifications. After the combined PCR/ligation reaction, the 4×SUMO2-ΔN11 or 4×SUMO1-ΔN15 DNA polymers were separated from smaller polymers by agarose gel electrophoresis and individually extracted (Macherey–Nagel). These were then subjected to a second PCR with primers to create BamHI and XhoI restriction sites, a C-terminal GG motif and a stop codon. The resulting fragments coding for di-, tri- and tetra-SUMO2-ΔN11 or SUMO1-ΔN15 chains were amplified and cloned into pGEX-4T2. […] Each monomer in these chains is separated by RS replacing the natural GG motif. […]
(§2) wt (wild-type) S. cerevisiae strains (JD47-13C) containing centromeric (low copy) plasmids expressing various (SUMO2)n–GFP–HA2 ([…]) fusions were grown overnight in minimal medium composed of 0.67% yeast nitrogen base with 2% raffinose as a carbon source. Cells from the overnight cultures were used to inoculate cultures with minimal media containing 2% galactose at a starting attenuance measured at 600 nm of 0.25. […] The levels of substrates and, as a loading control, levels of CDC11 were analysed by Western blotting and detection with an Odyssey infrared fluorescence imaging system (LI-COR).
On the technique in general: In western blotting, separated proteins are transferred to a membrane and probed.

The next assay deals with tetra-SUMO2–GFP–HA2. The assay is described as follows: Proteasomal targeting of tetra-SUMO2–GFP–HA2 by RNF4 in yeast. It is filed as cell-based, S. cerevisiae. Particulars: yeast coexpressing RNF4; Western blot, normalized to CDC11.
From the text: as §1, §2

The next assay concerns PML-NBs in HeLa cells. Put plainly: Disruption of PML-NBs by overexpression of RNF4 in HeLa cells. Format: cell-based. The note with it: HeLa cells transfected with HA-tagged full-length RNF4; automatic image analysis, 30 to 60 cells per condition; GFP control plasmid 12 PML-NBs, untreated average 15. Here is the method: HeLa B-cells were grown on coverslips and fixed in PBS with 3% paraformaldehyde. After permeabilization in PBS with 0.2% saponin (Sigma–Aldrich), cells were blocked in PBS, 3% BSA and 0.2% saponin. Primary and Alexa Fluor®-labelled secondary antibodies (Invitrogen) were applied in blocking buffer. Coverslips were embedded in ProLong® Gold Antifade (Invitrogen) and examined using a Zeiss Axioplan2 fluorescence microscope. Proteins and epitope tags were detected with the following antibodies against PML (A167 and A168; Bethyl), HA (haemagglutinin) (3F10; Roche, 16B12; Covance) and CDC11 (SC-7170; Santa Cruz Biotechnology). The secondary antibodies were labelled with Alexa Fluor® 546, Alexa Fluor® 647 or Alexa Fluor® 670 (Invitrogen), or IRDye800 (Rockland). For quantification of PML-NBs, cells were acquired using a Zeiss Meta 510 Confocal microscope, 63× objective NA (numerical aperture) 1.4 and appropriate laser and filter settings. Z-stacks were taken according to Nyquist criteria. Microscopic pictures were analysed with Volocity 6.2 Cellular Imaging & Analysis Software (PerkinElmer). Transfected cells were automatically identified within the 546 nm channel and the amount of PML-NBs (647 nm channel) that were localized within the nuclei of transfected cells were automatically counted.

These results are taken from PMC3901395, “Multivalent interactions of the SUMO-interaction motifs in RING finger protein 4 determine the specificity for chains of the SUMO” (Biochemical Journal, 2013).

B1: RNF4 FL: full-length human RNF4 (RING finger protein 4); FLAG-tagged in yeast, HA-tagged in HeLa cells (protein)
chain: MSTRKRRGGAINSRQAQKRTREATSTPEISLEAEPIELVETAGDEIVDLTCESLEPVVVDLTHNDSVVIVDERRRPRRNARRLPQDHADSCVVSSDDEELSRDRDVYVTTHTPRNARDEGATGLRPSGTVSCPICMDGYSEIVQNGRLIVSTECGHVFCSQCLRDSLKNANTCPTCRKKINHKRYHPIYI
modifications: left off: GST, end not stated, cleaved
notes: full-length human RNF4 (RING finger protein 4); FLAG-tagged in yeast, HA-tagged in HeLa cells
On to B1, for which, in the assay on tri-SUMO2–GFP–HA2, the “level of tri-SUMO2–GFP–HA reporter (control without RNF4 = 100%)” value amounted to 45%. Moreover, the “level of tetra-SUMO2–GFP–HA reporter (control without RNF4 = 100%)” value in the assay with tetra-SUMO2–GFP–HA2 is 43%. Besides, the “number of PML-NBs after transfection” value in the assay with PML-NBs in HeLa cells was “approximately five”.
